The conditions of the data set: Archaeoglobus fulgidus (strain ATCC 49558 / DSM 4304 / JCM 9628 / NBRC 100126 / VC-16), pH 7.5, CD, sodium phosphate 20 mM, reversible: no, whole UniProt chain shown.

Values joined by “and” are separate entries in the source; they are usually repeats but may differ in a detail not shown here. Identical values can stand only once.

B1: wild type, O28558 (protein)
chain: MLDMPIDPVYYQLAEYFDSLPKFDQFSSAREYREAINRIYEERNRQLSQHERVERVEDRTIKGRNGDIRVRVYQQKPDSPVLVYYHGGGFVICSIESHDALCRRIARLSNSTVVSVDYRLAPEHKFPAAVYDCYDATKWVAENAEELRIDPSKIFVGGDSAGGNLAAAVSIMARDSGEDFIKHQILIYPVVNFVAPTPSLLEFGEGLWILDQKIMSWFSEQYFSREEDKFNPLASVIFADLENLPPALIITAEYDPLRDEGEVFGQMLRRAGVEASIVRYRGVLHGFINYYPVLKAARDAINQIAALLVFD
As to B1, under “20 °C, Urea”, the denaturant m value amounted to 1.65 kcal/mol/M, the “denaturant midpoint (higher = more stable)” value turned out to be 7.1 M and the unfolding free energy was 11.7 kcal/mol. Under “Thermal”, the “unfolding enthalpy (van 't Hoff)” value was 103 kcal/mol and 95.6 kcal/mol and 90.8 kcal/mol.

Source of the values: FireProtDB (doi:10.1021/bi011146t).
